Measured values reported in publication doi:10.1101/2019.12.13.867358 (bioRxiv, 2019).

Molecular target: T1, Smc4 (S. cerevisiae, UniProt Q12267 1-1418)
T1 sequence (looked up): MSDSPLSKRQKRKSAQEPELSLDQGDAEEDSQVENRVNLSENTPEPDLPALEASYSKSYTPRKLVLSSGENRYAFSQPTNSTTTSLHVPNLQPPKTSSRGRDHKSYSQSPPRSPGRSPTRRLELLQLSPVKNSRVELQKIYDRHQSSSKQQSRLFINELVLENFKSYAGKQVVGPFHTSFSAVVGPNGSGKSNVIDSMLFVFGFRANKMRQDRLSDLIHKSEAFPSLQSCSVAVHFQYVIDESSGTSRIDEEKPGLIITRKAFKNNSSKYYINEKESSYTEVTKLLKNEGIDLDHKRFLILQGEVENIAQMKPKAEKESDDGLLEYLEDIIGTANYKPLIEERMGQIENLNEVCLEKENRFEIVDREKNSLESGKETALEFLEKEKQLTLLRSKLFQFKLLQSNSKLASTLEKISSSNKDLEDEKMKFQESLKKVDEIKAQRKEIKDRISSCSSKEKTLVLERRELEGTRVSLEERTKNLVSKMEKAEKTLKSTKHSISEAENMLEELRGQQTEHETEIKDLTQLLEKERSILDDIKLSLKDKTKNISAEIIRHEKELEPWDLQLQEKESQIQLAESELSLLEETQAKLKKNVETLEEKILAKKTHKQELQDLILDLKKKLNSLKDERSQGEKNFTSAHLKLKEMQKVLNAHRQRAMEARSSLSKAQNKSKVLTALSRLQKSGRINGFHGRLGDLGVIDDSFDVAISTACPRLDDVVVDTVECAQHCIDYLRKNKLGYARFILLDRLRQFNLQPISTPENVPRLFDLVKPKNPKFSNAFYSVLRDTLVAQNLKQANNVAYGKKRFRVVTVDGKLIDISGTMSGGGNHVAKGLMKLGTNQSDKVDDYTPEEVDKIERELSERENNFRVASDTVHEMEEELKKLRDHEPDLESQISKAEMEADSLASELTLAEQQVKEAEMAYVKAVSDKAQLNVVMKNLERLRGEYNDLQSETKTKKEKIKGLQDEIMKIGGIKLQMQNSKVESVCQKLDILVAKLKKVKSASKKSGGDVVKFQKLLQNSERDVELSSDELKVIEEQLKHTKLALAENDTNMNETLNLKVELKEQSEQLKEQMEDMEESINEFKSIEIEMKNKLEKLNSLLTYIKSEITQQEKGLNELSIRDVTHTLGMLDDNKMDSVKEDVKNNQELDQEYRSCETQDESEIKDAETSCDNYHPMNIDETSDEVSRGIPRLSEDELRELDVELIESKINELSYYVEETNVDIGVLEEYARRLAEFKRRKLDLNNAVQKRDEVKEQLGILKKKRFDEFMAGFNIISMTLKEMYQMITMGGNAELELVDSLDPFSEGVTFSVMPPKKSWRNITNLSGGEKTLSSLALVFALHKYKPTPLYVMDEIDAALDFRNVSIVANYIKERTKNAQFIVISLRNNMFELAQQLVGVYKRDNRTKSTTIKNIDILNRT
Assay: AFM imaging

B1: Smc2 (natural protein, S. cerevisiae, UniProt P38989 1-1170, looked up)
chain: MKVEELIIDGFKSYATRTVITDWDPQFNAITGLNGSGKSNILDAICFVLGIASMSTVRASSLQDLIYKRGQAGVTKASVTIVFDNTDKSNSPIGFTNSPQISVTRQVVLGGTSKYLINGHRAPQQSVLQLFQSVQLNINNPNFLIMQGKITKVLNMKPSEILSLIEEAAGTKMFEDRREKAERTMSKKETKLQENRTLLTEEIEPKLEKLRNEKRMFLEFQSTQTDLEKTERIVVSYEYYNIKHKHTSIRETLENGETRMKMLNEFVKKTSEEIDSLNEDVEEIKLQKEKELHKEGTISKLENKENGLLNEISRLKTSLSIKVENLNDTTEKSKALESEIASSSAKLIEKKSAYANTEKDYKMVQEQLSKQRDLYKRKEELVSTLTTGISSTGAADGGYNAQLAKAKTELNEVSLAIKKSSMKMELLKKELLTIEPKLKEATKDNELNVKHVKQCQETCDKLRARLVEYGFDPSRIKDLKQREDKLKSHYYQTCKNSEYLKRRVTNLEFNYTKPYPNFEASFVHGVVGQLFQIDNDNIRYATALQTCAGGRLFNVVVQDSQTATQLLERGRLRKRVTIIPLDKIYTRPISSQVLDLAKKIAPGKVELAINLIRFDESITKAMEFIFGNSLICEDPETAKKITFHPKIRARSITLQGDVYDPEGTLSGGSRNTSESLLVDIQKYNQIQKQIETIQADLNHVTEELQTQYATSQKTKTIQSDLNLSLHKLDLAKRNLDANPSSQIIARNEEILRDIGECENEIKTKQMSLKKCQEEVSTIEKDMKEYDSDKGSKLNELKKELKLLAKELEEQESESERKYDLFQNLELETEQLSSELDSNKTLLHNHLKSIESLKLENSDLEGKIRGVEDDLVTVQTELNEEKKRLMDIDDELNELETLIKKKQDEKKSSELELQKLVHDLNKYKSNTNNMEKIIEDLRQKHEFLEDFDLVRNIVKQNEGIDLDTYRERSKQLNEKFQELRKKVNPNIMNMIENVEKKEAALKTMIKTIEKDKMKIQETISKLNEYKRETLVKTWEKVTLDFGNIFADLLPNSFAKLVPCEGKDVTQGLEVKVKLGNIWKESLIELSGGQRSLIALSLIMALLQFRPAPMYILDEVDAALDLSHTQNIGHLIKTRFKGSQFIVVSLKEGMFANANRVFRTRFQDGTSVVSIM
Question: Does B1 bind?
Answer: binds
